Results taken from the supplement of paper PMC12764529.
± gives the half width of the 95% confidence interval.

How the values were obtained:
[1] = folding stability dG unfold from trypsin proteolysis; higher = more stable
In short: (§1)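 Unfolding free energy was derived, per protease or combined, against a sequence-predicted unfolded-state K50 and a shared folded-state K50, starting from K50 inferred by Bayesian fitting of sequencing counts. Digestion with trypsin and chymotrypsin was carried out on designed mini-proteins under 80 residues without cysteine in a PA-tagged cDNA display construct. Only designs with AlphaFold2 dimer inter-PAE above 15 were kept.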

[2] = folding stability dG unfold from chymotrypsin proteolysis; higher = more stable
In short: as §1

[3] = folding stability dG unfold (combined trypsin and chymotrypsin); higher = more stable
In short: as §1

Row | Sequence | folding stability dG unfold [1] | folding stability dG unfold [2] | folding stability dG unfold [3]
1 | SAGGSAGGTITVTPLPDGRELITYPEKNALVEIVKDPATGKETVIVYEDGEPKVISLEELKKKLSAGGSAGG [r6_534_JUSTAS] | 0.359 ± 0.059 kcal/mol | 0.383 ± 0.021 kcal/mol | 0.417 ± 0.079 kcal/mol
2 | SAGMKIETIPEVDYVVIEIDAKSLEEAIETLKYLTEKLGLKKVIAVADPTSNKVIAIAEVGNPEALEKLSAG [r5_598_TrMRF] | 2.33 ± 0.07 kcal/mol | 1.56 ± 0.057 kcal/mol | 1.96 ± 0.1 kcal/mol
3 | SAMPLLVKVTFYPKDPVTGIPSEEIEEKEVPDIEEAIKEVKKKLPKDNSAKIEVLDENGKLLKTIDLNLSAG [r14_234_JUSTAS] | 0.721 ± 0.029 kcal/mol | 0.885 ± 0.11 kcal/mol | 0.845 ± 0.12 kcal/mol
4 | SAGGDMYFVTVEIWRPREPDPDGEWKWEPIPITFPFDPDQAEDFAKEIINILQKDGYHVKIKVIPMPSAGGS [r8_10_TrROS] | 2.56 ± 0.1 kcal/mol | 3.75 ± 0.28 kcal/mol | 3.17 ± 0.43 kcal/mol
5 | SAGGMMTLKITIVDEDGNEITIEVEMSIEELEELIKELFPGKKVKVVSVEEEPVEPGLVKVTIKIEKESAGG [r13_832_TrROS_Hall] | 3.6 ± 0.12 kcal/mol | 5.01 ± 0.16 kcal/mol | 4.96 ± 0.33 kcal/mol
6 | SAGGSAGGSAPATITSIEVEERTGPDGRTYRVLRVRLADTGEEVEIVVPGMSLEEVLAALASSAGGSAGGSA [r18_345_TrROS_Hall] | 2.86 ± 0.031 kcal/mol | 2.937 ± 0.019 kcal/mol | 2.93 ± 0.082 kcal/mol
7 | SAGGSAGGSEEEVEIKVVEPVDVVVLPDGTVRRTFRVEDGALLVITVHFPPDGNPVGEIEIFPSAGGSAGGS [r20_240_TrMRF] | 1.56 ± 0.032 kcal/mol | 1.64 ± 0.04 kcal/mol | 1.68 ± 0.16 kcal/mol
8 | SAGGIELKINIQMPAEEAVEFIRNFIEELGYEIEDIEVERDPENGMVSVPIEFEIKPVPPVDPEDQKSAGGS [r16_584_TrROS] | 0.144 ± 0.076 kcal/mol | 0.166 ± 0.26 kcal/mol | 0.315 ± 0.19 kcal/mol
9 | SAGGVIPPSATITTLKTYPDGTVLTNVTFPDGTPMTVTLTRETLPDGSVVLKFTNPATGEELATFPVSSAGG [r13_527_JUSTAS] | 1.93 ± 0.063 kcal/mol | 2.15 ± 0.062 kcal/mol | 2.15 ± 0.088 kcal/mol
10 | SEKLTVTLTLTVVTTETRVTYDKETGELTVETRTEVRTLTLTVTADSEEEAKRAVQELLDALEKNPELLSSA [r9_77_TrROS_Hall] | 3.8 ± 0.14 kcal/mol | 4.94 ± 0.13 kcal/mol | 4.66 ± 0.15 kcal/mol
11 | SAGGMKKKIVEIEIVEVKYDEETNEVTIKIKIKNENGEEIEIEVTMSKEELEKMTPEELKKLVKELLKSAGG [r13_512_TrROS_Hall] | 2.16 ± 0.2 kcal/mol | 2.18 ± 0.24 kcal/mol | 2.12 ± 0.3 kcal/mol
12 | SAGGNKEHKVTLEIYIMMWPDPDNGQPYPMPLEIEAPYKNNDPEAAEADIKELLKEIPIPPWMKDMISAGGS [r16_40_TrROS] | 1.19 ± 0.12 kcal/mol | 0.692 ± 0.15 kcal/mol | 0.988 ± 0.39 kcal/mol
13 | SAGGSAGGSAGGPPILLPKFDGSVKEVLTLPTEDRLLLVAYNPETGKLFVFEIKDPDEFSAGGSAGGSAGGS [r10_772_TrMRF] | 0.694 ± 0.044 kcal/mol | 1.65 ± 0.063 kcal/mol | 1.34 ± 0.14 kcal/mol
14 | SAGGGFDLEFVTPDGRRIRVEVKRILSYDPEKGYLVMEVKVTIYHPDKPIEIDGIIVFPPGFPPGAGGSAGG [r13_823_TrMRF] | 3.6 ± 0.13 kcal/mol | 4 ± 0.17 kcal/mol | 3.85 ± 0.12 kcal/mol
15 | SAGGSAMKPGQKLLVKNKKTNKIYEITFDKDTGKVYIHNKKTGKTYEFDSLEDALKKMGFEPVKVESAGGSA [r15_500_TrROS_Hall] | 1.43 ± 0.078 kcal/mol | 2.45 ± 0.08 kcal/mol | 2.28 ± 0.16 kcal/mol
16 | SAGGERERLLTLEVEIDVPPGVSPEEIAARLAALLPPGAEIERVEIRYDPATRKITVRVVIRLPEGLSAGGS [r16_396_TrROS_Hall] | 3.59 ± 0.25 kcal/mol | 2.78 ± 0.093 kcal/mol | 3.25 ± 0.29 kcal/mol
17 | SAGGSSSLLEGLPGVVEVTVTTSLSVRPLSPEAARANPGQADRTVPLPRTTVTVTVEFPVSPAGILSAGGSA [r2_404_JUSTAS] | 0.509 ± 0.1 kcal/mol | 1.15 ± 0.067 kcal/mol | 0.94 ± 0.15 kcal/mol
18 | YMVFIRIEVEDPKNGEEKAEIPIPIPIPPGDLKNMPPEDREKMIEEAKYFAEELAEEKGNVKIKPEIQWFES [r1_115_TrROS] | -0.246 ± 0.19 kcal/mol | -0.226 ± 0.66 kcal/mol | -0.0293 ± 0.23 kcal/mol
19 | SAGGSANLAETPPVTTTETIEIKVPDPGKPLPITEEDVKKKYEGKNTKVEISVEGDKVIITITTKESAGGSA [r15_377_JUSTAS] | 0.407 ± 0.054 kcal/mol | 0.871 ± 0.094 kcal/mol | 0.68 ± 0.24 kcal/mol
20 | SAGGSMEVVVTFPDGSKEVIPEEPLKKLAEELGIPWDEEDPEAQWEAIARALAEKTGKPVEKVEIASAGGSA [r2_83_TrMRF] | 1.97 ± 0.072 kcal/mol | 2.24 ± 0.17 kcal/mol | 2.09 ± 0.093 kcal/mol
21 | SAGGPNWYLKVKIEHRYPNPDNGKWQERRMEVIIPFKDPDQLPPNALKKLIDIMQPMGFRVDVELFPWSAGG [r13_926_TrROS] | 3.19 ± 0.23 kcal/mol | 3.99 ± 0.12 kcal/mol | 3.76 ± 0.28 kcal/mol
